Assay [1] concerns cIL-13 mediated STAT6 phosphorylation. The assay is described as follows: Inhibition of cIL-13 mediated STAT6 phosphorylation in DH82 cells (AlphaLISA p-STAT6). The format is cell-based, canine. As to conditions: for concentration inhibiting 50% of the cIL-13 mediated STAT6 phosphorylation (in words): DH82 cells. The protocol:
The ability of the cFc fusion proteins to block the signaling mediated by IL-4 and IL-13, as measured by inhibition of STAT-6 phosphorylation in DH82 cells, were determined as follows:
• 1. Actively growing DH82 cells: Merck Animal Health Lot: 628-011, 24Oct14 • 2. HBSS, 1×: Corning, Catalog 21-022-CM • 3. AlphaLISA p-STAT6 (Tyr641) Assay Kit: Perkin Elmer, Catalog ALSU-PST6-A10K • 4. Recombinant canine IL-4: R&D Systems, Catalog: 752-CL/CF • 5a. cFc fusion protein samples for IL-4 studies • (i) cIL4Rα-cFc • (ii) cIL4Rα-IL13Rα1 ZW1-cFc • (iii) cIL4Rα-IL13Rα2 ZW1-cFc • 5b. cFc fusion protein samples for IL-13 studies: • (i) CIL13Rα1-cFc • (ii) cIL13Rα2-cFc • (iii) cIL4R-IL13Rα1 ZW1-cFc • (iv) cIL4R-IL13Rα2 ZW1-cFc • 6. Perkin Elmer® Envision
• 1. Tissue culture plates were seeded with […] DH82 cells per well (40 μL with the density of 2.5×10^5 cells/mL) and incubated at 37° C. for 2 hours. • 2. The cFc fusion proteins were pre-diluted to 2000 nM (500 nM final concentration in the well) and then 3-fold serially diluted in Hank's Balanced Salt Solution (HBSS). The proteins were added by transferring 20 μL/well to the respective locations on the tissue culture plates containing DH82 cells. • 3. (a) Canine IL-4 was diluted to 10 ng/ml in HBSS (2.5 ng/ml in the well) and 20 μL was added to each well of the plates. The plates were incubated for 15 min at 37° C.; or alternatively • (b) Canine IL-13 was diluted to 20 ng/ml in HBSS (5 ng/ml in the well) and 20 μL was added to each well of the plates. The plates were incubated for 15 min at 37° C. • 4. The plates were removed from the incubator and 20 μL of 4× Lysis buffer from the AlphaLISA® p-STAT-6 Assay Kit was added to each well of the plate. The plate was agitated on a plate shaker with 350 rpm for 10 minutes at room temperature. • 5. The Acceptor Mix was prepared from the AlphaLISA® p-STAT6 Assay Kit and 15 μL per well was added to 30 μL of the cell lysate in 96-well ½ Area Plates. The plates were sealed, agitated for 2 minutes at 350 rpm, and then incubated for 1 hour at room temperature. • 6. The Donor Mix was prepared from the AlphaLISA® p-STAT6 Assay kit under subdued laboratory lighting and 15 μL per well was added to each plate. The plates were sealed, covered with foil, agitated for 2 minutes at 350 rpm, and then incubated for 1 hour at room temperature. • 7. The plates were read using the AlphaScreen settings on the Perkin Elmer® En Vison.
For orientation: Alpha assays give light when donor and acceptor beads are brought close together.

Assay [2] has as its target T1, canine IL-13 (cIL-13) (Canis lupus familiaris, UniProt Q9N0W9).
T1 sequence (Q9N0W9 19-131): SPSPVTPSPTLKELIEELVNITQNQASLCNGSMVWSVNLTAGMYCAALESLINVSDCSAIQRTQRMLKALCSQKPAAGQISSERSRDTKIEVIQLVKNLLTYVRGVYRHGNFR
The assay is described as follows: Binding kinetics of cFc fusion proteins to canine IL-13 (OCTET HTX). As to conditions: Table 4, cIL-13; for ka: association rate constant; for kdis: dissociation rate constant. The protocol: (§1) The binding constants for the cFc fusion proteins provided in Tables 3 and 4 below, were determined using OCTET® HTX. All kinetics measurements were performed by OCTET® HTX using SA® biosensors and DATA ACQUISITION® 12.0 software. 10 μg/mL of biotin-labeled antigen, either canine IL-4 (cIL-4) or canine IL-13 (cIL-13) were loaded onto the SAR biosensors for 120 seconds. Next, the biosensors were placed into 1×pH 7.0 TBS/Casein buffer for 60 seconds for the blocking phase. For the association phase, antigen loaded biosensors were placed into 2-fold serial dilutions from 1 μM down to 15.6 nM of the wild-type, the bispecific, or the FcRn-mutant receptor Fc-fusions that recognized the cIL-4 or cIL-13 antigen in 1×pH 7.0 TBS/Casein buffer for 30 seconds. The last well was buffer alone and that sensor was used for reference sensor subtraction. Finally, the biosensors were placed into 1×pH 7.0 TBS/Casein buffer for 120 seconds for the dissociation phase. The results were then analyzed using Data Analysis 12.0 software and the curves were fitted using a 1:1 binding model.

The target of assay [3] is T2, canine IL-4 (cIL-4) (Canis lupus familiaris, UniProt O77762).
T2 sequence (O77762 25-132): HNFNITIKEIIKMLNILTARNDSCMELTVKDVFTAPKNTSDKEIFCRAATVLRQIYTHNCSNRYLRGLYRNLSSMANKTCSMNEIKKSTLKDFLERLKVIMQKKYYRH
The assay is described as follows: Binding kinetics of cFc fusion proteins to canine IL-4 (OCTET HTX). The protocol: as §1

For assay [4], the target named is T3, canine IL-13 (canine, UniProt Q9N0W9 19-131, limits assumed, biotin-labeled in the Octet assay (site not stated)).
T3 construct: Biotin-labeled and loaded on SA biosensors for the kinetics; unlabeled in the DH82 cell assay; also called cIL-13; canine Interleukin-13
T3 sequence (looked up): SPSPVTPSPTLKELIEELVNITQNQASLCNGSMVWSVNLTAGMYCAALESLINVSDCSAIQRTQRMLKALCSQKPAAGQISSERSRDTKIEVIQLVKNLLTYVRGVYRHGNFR
Nature of the assay: BLI (Octet HTX), biotin-cIL-13 on SA biosensors, fusion protein in solution, 1:1 fit. The protocol: as §1
Background: Biolayer interferometry detects binding as a change in optical thickness at a sensor tip.

For assay [5], the target named is T3, canine IL-13. The assay is described as follows: cell-based or functional assay.
Assay [6] deals with T3, canine IL-13. Nature of the assay: BLI (Octet); summary table, rounded from Table 4.
In assay [7] the target is T3, canine IL-13. The assay is described as follows: cell-based or functional assay. The source holds these as a separate data set.

By Kd is commonly meant the concentration at which binding is half-saturated. Read a high Kd as weaker binding. For orientation: koff means the rate constant with which the complex falls apart. A lower koff goes with slow dissociation. Usually kon stands for the rate constant with which the complex forms. A high value points to fast association.

B1: cIL4Rα-IL13Rα2_ZW1-cFc: bispecific heterodimer of cIL-4Rα-cIgGB-Fc-ZW-A (SEQ ID NO: 18) and cIL-13Rα2-cIgGB-Fc-ZW-B (SEQ ID NO: 20) (protein)
chain 1: VKVLHEPSCFSDYISTSVCQWKMDHPTNCSAELRLSYQLDFMGSENHTCVPENREDSVCVCSMPIDDAVEADVYQLDLWAGQQLLWSGSFQPSKHVKPRTPGNLTVHPNISHTWLLMWTNPYPTENHLHSELTYMVNVSNDNDPEDFKVYNVTYMGPTLRLAASTLKSGASYSARVRAWAQTYNSTWSDWSPSTTWLNYYEPWEQHLPPKRENGRVPRPPDCPKCPAPEMLGGPSVFIFPPKPKDTLLIARTPEVTCVVVDLDPEDPEVQISWFVDGKQMQTAKTQPREEQFNGTYRVVSVLPIGHQDWLKGKQFTCKVNNKALPSPIERTISKARGQAHQPSVYVYPPSREELSKNTVSLTCLIKDFFPPDIDVEWQSNGQQEPESKYRTTPPQLDEDGSYALVSKLSVDKSRWQRGDTFICAVMHEALHNHYTQESLSHSPGK
chain 2: SMLSNAEIKVNPPQDFEIVDPGYLGYLSLQWQPPLFPDNFKECTIEYELKYRNIDSENWKTIITKNLHYKDGFDLNKGIEAKINTLLPAQCTNGSEVRSSWAETTYWTSPQGNRETKIQDMDCVYYNWQYLVCSWKPGMGVHFDTNYQLFYWYEGLDHSAECTDYIKVNGKNMGCRFPYLESSDYKDFYICVNGSSESQPIRPSYFIFQLQNIVKPMPPDYLSLTVKNSEEINLKWNMPKGPIPAKCFIYEIEFTEDGTTWVTTTVENEIQITRTSNESQKLCFLVRSKVNIYCSDDGIWSEWSDEQCWKGDIWKETPKRENGRVPRPPDCPKCPAPEMLGGPSVFIFPPKPKDTLLIARTPEVTCVVVDLDPEDPEVQISWFVDGKQMQTAKTQPREEQFNGTYRVVSVLPIGHQDWLKGKQFTCKVNNKALPSPIERTISKARGQAHQPSVYVLPPSREELSKNTVSLLCLIKDFFPPDIDVEWQSNGQQEPESKYLTWPPQLDEDGSYFLYSKLSVDKSRWQRGDTFICAVMHEALHNHYTQESLSHSPGK
modifications: heterodimer
B1: in assay [1], the “IC50 for cIL-13 mediated STAT6 phosphorylation, fold higher than for cIL-13Rα2-cFc” value is reported as “about 200 fold” and the “concentration inhibiting 50% of the cIL-13 mediated STAT6 phosphorylation (in words)” value is recorded as “well above nanomolar concentrations”. In addition, in assay [2], the ka stood at 32600 M⁻¹ s⁻¹ and the kdis was 0.000135 s⁻¹. The “binding constant (KD) with cIL-4” value in assay [3] (approximate values) was “undetectable”.

B2: cIL-13Rα1-cIgGB-Fc (Fc fusion)
chain: GGVAAPTETQPPVTNLSVSVENLCTVIWTWDPPEGASPNCTLRYFSHFDNKQDKKIAPETHRSKEVPLNERICLQVGSQCSTNESDNPSILVEKCTPPPEGDPESAVTELQCVWHNLSYMKCTWLPGRNTSPDTNYTLYYWHSSLGKILQCEDIYREGQHIGCSFALTNLKDSSFEQHSVQIVVKDNAGKIRPSFNIVPLTSHVKPDPPHIKRLFFQNGNLYVQWKNPQNFYSRCLSYQVEVNNSQTETNDIFYVEEAKCQNSEFEGNLEGTICFMVPGVLPDTLNTVRIRVRTNKLCYEDDKLWSNWSQAMSIGENTDPTPKRENGRVPRPPDCPKCPAPEMLGGPSVFIFPPKPKDTLLIARTPEVTCVVVDLDPEDPEVQISWFVDGKQMQTAKTQPREEQFNGTYRVVSVLPIGHQDWLKGKQFTCKVNNKALPSPIERTISKARGQAHQPSVYVLPPSREELSKNTVSLTCLIKDFFPPDIDVEWQSNGQQEPESKYRTTPPQLDEDGSYFLYSKLSVDKSRWQRGDTFICAVMHEALHNHYTQESLSHSPGK
notes: Homodimer; also called cIL-13Rα1-cFc; cIL13Rα1-cFc
In assay [4], B2 gave a Kd of 5.37 nM, a koff of 0.000312 s⁻¹ and a kon of 58000 M⁻¹ s⁻¹. The “IL-13 (IC50), summary table” value in assay [5] was 20 nM. Besides, the Kd in assay [6] is 5 nM. The “IL-13 IC50 (inhibition of cIL-13 mediated STAT6 phosphorylation in DH82 cells)” value in assay [7] was found to be 18.4 nM.

B3: cIL4Rα-IL13Rα1_ZW1-cFc: bispecific heterodimer of cIL-4Rα-cIgGB-Fc-ZW-A (SEQ ID NO: 18) and cIL-13Rα1-cIgGB-Fc-ZW-B (SEQ ID NO: 19) (protein)
chain 1: VKVLHEPSCFSDYISTSVCQWKMDHPTNCSAELRLSYQLDFMGSENHTCVPENREDSVCVCSMPIDDAVEADVYQLDLWAGQQLLWSGSFQPSKHVKPRTPGNLTVHPNISHTWLLMWTNPYPTENHLHSELTYMVNVSNDNDPEDFKVYNVTYMGPTLRLAASTLKSGASYSARVRAWAQTYNSTWSDWSPSTTWLNYYEPWEQHLPPKRENGRVPRPPDCPKCPAPEMLGGPSVFIFPPKPKDTLLIARTPEVTCVVVDLDPEDPEVQISWFVDGKQMQTAKTQPREEQFNGTYRVVSVLPIGHQDWLKGKQFTCKVNNKALPSPIERTISKARGQAHQPSVYVYPPSREELSKNTVSLTCLIKDFFPPDIDVEWQSNGQQEPESKYRTTPPQLDEDGSYALVSKLSVDKSRWQRGDTFICAVMHEALHNHYTQESLSHSPGK
chain 2: GGVAAPTETQPPVTNLSVSVENLCTVIWTWDPPEGASPNCTLRYFSHFDNKQDKKIAPETHRSKEVPLNERICLQVGSQCSTNESDNPSILVEKCTPPPEGDPESAVTELQCVWHNLSYMKCTWLPGRNTSPDTNYTLYYWHSSLGKILQCEDIYREGQHIGCSFALTNLKDSSFEQHSVQIVVKDNAGKIRPSFNIVPLTSHVKPDPPHIKRLFFQNGNLYVQWKNPQNFYSRCLSYQVEVNNSQTETNDIFYVEEAKCQNSEFEGNLEGTICFMVPGVLPDTLNTVRIRVRTNKLCYEDDKLWSNWSQAMSIGENTDPTPKRENGRVPRPPDCPKCPAPEMLGGPSVFIFPPKPKDTLLIARTPEVTCVVVDLDPEDPEVQISWFVDGKQMQTAKTQPREEQFNGTYRVVSVLPIGHQDWLKGKQFTCKVNNKALPSPIERTISKARGQAHQPSVYVLPPSREELSKNTVSLLCLIKDFFPPDIDVEWQSNGQQEPESKYLTWPPQLDEDGSYFLYSKLSVDKSRWQRGDTFICAVMHEALHNHYTQESLSHSPGK
modifications: heterodimer
Turning to B3, in assay [1], the “IC50 for cIL-13 mediated STAT6 phosphorylation, fold higher than for cIL-13Rα2-cFc” value was “about 20 fold” and the “concentration inhibiting 50% of the cIL-13 mediated STAT6 phosphorylation (in words)” value is “well above nanomolar concentrations”. In assay [2], this molecule yielded a ka of 94400 M⁻¹ s⁻¹ and a kdis of 3.91e-05 s⁻¹. Besides, in assay [3], the “loss in affinity for cIL-4 (KD times higher) relative to unmodified cIL-4Rα-cFc homodimer” value is on record as “about 10,000 fold”. For the same molecule, the ka in assay [3] (Table 3, association rate constant, cIL-4, ND = Binding Not Detected) was 237000 M⁻¹ s⁻¹. Besides, in assay [3] (Table 3, dissociation rate constant, cIL-4, ND = Binding Not Detected), the kdis came out at 0.00234 s⁻¹.

For the origin of these results see US20250325630A1, “HOMODIMER FUSION PROTEINS FOR TREATING ATOPIC DERMATITIS” (Intervet Inc., priority 2021, published 2025).
